Results on three proteins are retold here after publication PMC4705661, “Tetramerization and interdomain flexibility of the replication initiation controller YabA enables simultaneous binding to multiple partners” (Nucleic Acids Research, 2015).

Data set [1] deals with the molecule itself. As to the kind of experiment: SEC-MALS; YabA1-58 and YabA70-119 loaded at 5 mg.ml^-1 (100 μl) on a Superdex 75 column; 50 mM Tris pH 8.0, 150 mM NaCl.
Data set [2] deals with the molecule itself. In words: SEC-MALS; YabA loaded at 2.5 mg.ml^-1 (100 μl) on Superdex 200 HR 10/30; 50 mM Tris pH 8.0, 150 mM NaCl.
Data set [3] concerns the molecule itself. In words: crystal structure; form I crystals, space group P3(2)21, 2.7 Å; 20% PEG 3350, 100 mM Bis-Tris propane pH 6.5, 200 mM potassium thiocyanate.

B1: YabA^1–58 (domain or fragment, B. subtilis, UniProt P37542 1-58, looked up)
chain: MDKKELFDTVINLEEQIGSLYRQLGDLKQHIGEMIEENHHLQLENKHLRKRLDDTTQQ
notes: YabA, B. subtilis strain 168, residues 1-58; tag removed by HRV 3C protease; also called NTD fragment; N-terminal fragment YabA1-58; not shown: His-tag, N-terminal, cleaved
On to B1, for which the “stoichiometry N” value in data set [1] was 4.

B2: YabA (full length, purified recombinant) (natural protein)
chain: not shown
notes: expressed from pET151/D-TOPO; also called recombinant YabA; full length YabA; source: E. coli BL21 (DE3), purified (HisTrap, TEV cleavage, Superdex 200)
As for B2, the “stoichiometry N” value in data set [2] came out at 4.

B3: YabA^1–62 (crystallized N-terminal domain fragment) (domain or fragment, B. subtilis, UniProt P37542 1-62, looked up)
chain: MDKKELFDTVINLEEQIGSLYRQLGDLKQHIGEMIEENHHLQLENKHLRKRLDDTTQQIEKF
notes: YabA, B. subtilis strain 168; form I crystals (2.7 Å) grew from the purified YabA/DnaN complex, form II crystals from YabA alone; two chains per asymmetric unit, tetramer by crystal symmetry; also called YabA NTD; YabA-NTD; source: E. coli BL21 (DE3), purified; fragment left by proteolysis during crystallization
Regarding B3, in data set [3], the “stoichiometry N” value was 4.
